According to PMC5180179, “Bacteriophage T5 gene D10 encodes a branch-migration protein”:

Experiments:
D10 helicase (wild type) [1] = target: T1, D10 helicase (wild type) (Bacteriophage T5, UniProt P11107 1-450); assay: EMSA with poly d(AT) competitor; no ATP/Mg2+; affinity near identical to Y20; bound but not unwound; EMSA: 0.1 nM DNA, 20 mM HEPES-NaOH pH 7.5, 135 mM NaCl, 0.1% NP40 alternative, 0.1 mg/ml BSA, 2 mM DTT, 1 mM EDTA, 10% glycerol, 22 °C, 20 min; footprinting the same with 10 nM DNA and no glycerol; conditions: protein: recombinant; tags: GST tag removed with thrombin; label: 5'-32P; three-way Y-junction, three 20 bp arms
T1 sequence: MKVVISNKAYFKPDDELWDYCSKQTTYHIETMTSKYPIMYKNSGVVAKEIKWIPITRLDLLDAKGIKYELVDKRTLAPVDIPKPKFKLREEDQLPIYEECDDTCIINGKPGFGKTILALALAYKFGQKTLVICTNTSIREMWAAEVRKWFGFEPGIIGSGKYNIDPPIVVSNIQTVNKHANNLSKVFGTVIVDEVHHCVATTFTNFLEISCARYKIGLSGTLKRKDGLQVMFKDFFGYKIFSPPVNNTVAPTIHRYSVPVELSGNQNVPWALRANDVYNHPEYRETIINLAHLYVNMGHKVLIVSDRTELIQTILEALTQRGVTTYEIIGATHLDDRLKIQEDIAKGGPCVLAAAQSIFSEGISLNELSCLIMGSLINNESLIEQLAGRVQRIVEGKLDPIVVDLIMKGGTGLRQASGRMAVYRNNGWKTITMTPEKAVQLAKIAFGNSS

D10 helicase (wild type) [2] = target: T1, D10 helicase (wild type); assay: EMSA with nonspecific competitor DNA; no ATP/Mg2+, 1 mM EDTA; EMSA: 0.1 nM DNA, 20 mM HEPES-NaOH pH 7.5, 135 mM NaCl, 0.1% NP40 alternative, 0.1 mg/ml BSA, 2 mM DTT, 1 mM EDTA, 10% glycerol, 22 °C, 20 min; footprinting the same with 10 nM DNA and no glycerol; conditions: protein: recombinant; tags: GST tag removed with thrombin; label: 5'-32P; three-way Y-junction, three 20 bp arms, nick in strand A at the junction
D10 R389N = target: T2, D10 R389N (Bacteriophage T5, UniProt P11107 1-450, R389N); assay: EMSA; binding equivalent to wild type; not unwound; EMSA: 0.1 nM DNA, 20 mM HEPES-NaOH pH 7.5, 135 mM NaCl, 0.1% NP40 alternative, 0.1 mg/ml BSA, 2 mM DTT, 1 mM EDTA, 10% glycerol, 22 °C, 20 min; footprinting the same with 10 nM DNA and no glycerol; conditions: protein: recombinant; tags: GST tag removed with thrombin; label: 5'-32P; four-way non-homologous Holliday junction, four 20 bp arms
T2 sequence: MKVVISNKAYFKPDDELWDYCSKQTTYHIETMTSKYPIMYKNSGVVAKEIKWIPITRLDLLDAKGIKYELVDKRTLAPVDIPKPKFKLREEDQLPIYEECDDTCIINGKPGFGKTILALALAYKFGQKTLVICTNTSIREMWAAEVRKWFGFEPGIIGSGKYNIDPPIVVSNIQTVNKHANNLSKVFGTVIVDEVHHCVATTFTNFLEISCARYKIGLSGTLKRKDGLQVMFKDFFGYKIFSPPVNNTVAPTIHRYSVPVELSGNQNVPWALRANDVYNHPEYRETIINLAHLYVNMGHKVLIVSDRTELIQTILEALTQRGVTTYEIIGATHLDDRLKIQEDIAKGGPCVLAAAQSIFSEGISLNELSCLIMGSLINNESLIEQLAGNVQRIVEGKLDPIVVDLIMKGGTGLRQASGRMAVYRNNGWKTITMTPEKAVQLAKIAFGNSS

D10 helicase (wild type) [3] = target: T1, D10 helicase (wild type); assay: EMSA; EMSA: 0.1 nM DNA, 20 mM HEPES-NaOH pH 7.5, 135 mM NaCl, 0.1% NP40 alternative, 0.1 mg/ml BSA, 2 mM DTT, 1 mM EDTA, 10% glycerol, 22 °C, 20 min; footprinting the same with 10 nM DNA and no glycerol; conditions: protein: recombinant; tags: GST tag removed with thrombin; label: 5'-32P; four-way non-homologous Holliday junction, four 20 bp arms
D10 helicase (wild type) [4] = target: T1, D10 helicase (wild type); assay: EMSA with nonspecific competitor DNA; affinity similar to Y20; EMSA: 0.1 nM DNA, 20 mM HEPES-NaOH pH 7.5, 135 mM NaCl, 0.1% NP40 alternative, 0.1 mg/ml BSA, 2 mM DTT, 1 mM EDTA, 10% glycerol, 22 °C, 20 min; footprinting the same with 10 nM DNA and no glycerol; conditions: protein: recombinant, tags: GST tag removed with thrombin, label: 5'-32P, three-way Y-junction, three 20 bp arms
D10 helicase (wild type) [5] = target: T1, D10 helicase (wild type); assay: EMSA with poly d(AT) competitor; no ATP/Mg2+; 0.1 nM DNA, 0.4 nM D10 (all substrate bound); EMSA: 0.1 nM DNA, 20 mM HEPES-NaOH pH 7.5, 135 mM NaCl, 0.1% NP40 alternative, 0.1 mg/ml BSA, 2 mM DTT, 1 mM EDTA, 10% glycerol, 22 °C, 20 min; footprinting the same with 10 nM DNA and no glycerol; conditions: protein: recombinant; tags: GST tag removed with thrombin; label: 5'-32P on one strand; three-way Y-junction, three 20 bp arms
D10 helicase (wild type) [6] = target: T1, D10 helicase (wild type); assay: EMSA with poly d(AT) competitor; no ATP/Mg2+; affinity near identical to Y20; EMSA: 0.1 nM DNA, 20 mM HEPES-NaOH pH 7.5, 135 mM NaCl, 0.1% NP40 alternative, 0.1 mg/ml BSA, 2 mM DTT, 1 mM EDTA, 10% glycerol, 22 °C, 20 min; footprinting the same with 10 nM DNA and no glycerol; conditions: protein: recombinant; tags: GST tag removed with thrombin; label: 5'-32P; three-way Y-junction, three 20 bp arms

B1: Y20'' (dsDNA)
DNA 1: TTCGAAACGTGCGGAATCATACGGGCGGCTTAACGGTGAT
DNA 2: ATCACCGTTAAGCCGCCCGTCGACCAAGAGCTCGGTACCC
DNA 3: GGGTACCGAGCTCTTGGTCGATGATTCCGCACGTTTCGAA
binding result (D10 helicase (wild type) [1]): binds

B2: Y20-3 (oligo A nicked) (dsDNA)
DNA 1: TTCGAAACGTGCGCGCCCAT
DNA 2: ACGCCAAGCTTAACGGTGAT
DNA 3: ATCACCGTTAAGCTTGGCGTCGAATTCGAGCTCGGTACCC
DNA 4: GGGTACCGAGCTCGAATTCGATGGGCGCGCACGTTTCGAA
binding signal (D10 helicase (wild type) [2]): ~2 fold lower affinity than Y20

B3: NHJ20 (dsDNA)
DNA 1: TTCGAAACGTGCGCGCCCATACGCCAAGCTTAACGGTGAT
DNA 2: ATCACCGTTAAGCTTGGCGTCGAATTCGAGCTCGGTACCC
DNA 3: GGGTACCGAGCTCGAATTCGTGGGCGGTGCCCAACGCATA
DNA 4: TATGCGTTGGGCACCGCCCAATGGGCGCGCACGTTTCGAA
binding result (D10 R389N): binds
binding result (D10 helicase (wild type) [3]): binds

B4: Y20-2 (oligo B nicked) (dsDNA)
DNA 1: TTCGAAACGTGCGCGCCCATACGCCAAGCTTAACGGTGAT
DNA 2: GGGTACCGAGCTCGAATTCGATGGGCGCGCACGTTTCGAA
DNA 3: ATCACCGTTAAGCTTGGCGT
DNA 4: CGAATTCGAGCTCGGTACCC
binding result (D10 helicase (wild type) [4]; nick in strand B at the junction): binds

B5: Y20 (dsDNA)
DNA 1: TTCGAAACGTGCGCGCCCATACGCCAAGCTTAACGGTGAT
DNA 2: ATCACCGTTAAGCTTGGCGTCGAATTCGAGCTCGGTACCC
DNA 3: GGGTACCGAGCTCGAATTCGATGGGCGCGCACGTTTCGAA
binding result (D10 helicase (wild type) [5]): binds

B6: Y20-1 (oligo C nicked) (dsDNA)
DNA 1: TTCGAAACGTGCGCGCCCATACGCCAAGCTTAACGGTGAT
DNA 2: ATCACCGTTAAGCTTGGCGTCGAATTCGAGCTCGGTACCC
DNA 3: GGGTACCGAGCTCGAATTCG
DNA 4: ATGGGCGCGCACGTTTCGAA
binding result (D10 helicase (wild type) [4]; nick in strand C at the junction): binds

B7: Y20' (dsDNA)
DNA 1: TTCGAAACGTGCGCGCCTCGATGCCAAGCTTAACGGTGAT
DNA 2: ATCACCGTTAAGCTTGGCATACGATTCGAGCTCGGTACCC
DNA 3: GGGTACCGAGCTCGAATCGTCGAGGCGCGCACGTTTCGAA
binding result (D10 helicase (wild type) [6]): binds
